{"source": "patent US20210261685A1", "about": "(Alector, published 2021)", "binders": {"B1": {"name": "MTK-30 (antibody, human IgG1, V domains shown)", "VH": "QVQLQQPGTELVRPGASVKLSCKASGYTFTSYWMHWVKQRPGQGLEWIGNLNPNNGGTYYNEKFKSKATLTVDKSSSTAYMQLSSLTSEDSAVYYCARQILLYFDYWGQGTTLTVSS", "VL": "DVLMTQTPLSLPVSLGDQASISCRSSQSIVHSNGDTYLEWYLQKPGQSPKLLIYKVSNRFSGVPDRFSGSGSGTDFTLKISRVEAEDLGVYYCFQGSHVPWTFGGGTKLEIK"}, "B2": {"name": "MTK-31 (antibody, human IgG1, V domains shown)", "VH": "QIQLVQSGPELKKSGETVKISCKASGYTFTSYGMSWVKQAPGKGLKWMGWINTYSGVPTYADDFKGRFAFSLETSASTAYLQINNLKNEDTATYFCASLSYDGSLYHAMDYWGQGTSVTVSS", "VL": "B1 VL with L3S, C23S, S28T, D35N"}, "B3": {"name": "MTK-24 (antibody, human IgG1, V domains shown)", "VH": "QVQLQQPGAELVKPGASVKLSCKASGYTFTSYWMHWVKQRPGQGLEWIGMIHPNINTNYNEKFKSKATLTVDISSSTAYMQLSSLTSEDSAVYYCAKRSPYSNYDWYFDVWGTGTTVTVSS", "VL": "DIQMTQSPASLSVSVGETVTITCRASENIYSNLAWYQQKQGKSPQLLVYAATNLADGVPSRFSGSGSGTQYSLKINSLQSEDFGSYYCQHFWGTPLTFGAGTKLELK"}, "B4": {"name": "MTK-28 (antibody, human IgG1, V domains shown)", "VH": "QIQLVQSGPELKKPGETVKISCKASGYTFTTYGMSWVKQAPGKGLKWMGWINTYSGVPTYADDFKGRFAFSLETSASTAYLQINTLKNEDTTTYFCARFLRYYYFDYWGQGTTLTVSS", "VL": "QIVLSQSPVILSASPGEKVTMTCRASSSVTYMHWYQQQPGSSPKPWIYATSNLASGVPARFSGSGSGTSYSLTISRVETEDAATYYCHQWSGNPTFGGGTKLEIN"}, "B5": {"name": "MTK-26 (antibody, human IgG1, V domains shown)", "VH": "AVQFQESGPGLVKLSQSLSLTCSVTGYSITSGYYWDWIRQFPGNKLEWMGYISYDGSNNYNPSLKNRISITRDTSKNQFFLKLNSVTTEDTATYYCAREGGYYRSMDYWGQGTSVTVSS", "VL": "QIVLTQSPAIMSASPGEKVTIACSASSSVSFMHWFQQKPGTSPRLWIYSTSNLASGVPARFSGSGSGTSYSLTISRMEAEDAATYYCQQRSSYPFTFGSGTKLEIK"}, "B6": {"name": "MTK-27 (antibody, human IgG1, V domains shown)", "VH": "EVQLQQSGTELVRPGASVKLSCTASGFNIKDDYMHWVQQRPEQGLEWIGWIDPENGNTEYASKFQGKATITADASSNTAYLQLSSLTSEDTAVYYCSTLFSNYFDYWGQGTTLTVSS", "VL": "DIVMTQSQKFMSTSVGDRVSITCKASQNVRTSVAWYQQKPGQSPKALIYLASNRHTGVPDRFTGSGSGTDFTLTISNVRSEDLADYFCLQHWNYPYTFGGGTKLEIK"}, "B7": {"name": "MTK-35 (antibody, human IgG1, V domains shown)", "VH": "QVLLQQSGPELVKPGASVQLSCKASDYTFTSYDIHWVKQRPGQGLEWIGWIYPRDGYTKYNEIFKGKATLTVDTSSTTAYMELHSLTSEDSAVYFCARAYYTNWYYFDYWGQGTTLTVSS", "VL": "EIVLTQSPTTMAASPGEKITITCRASSSISSHYLHWYQQKPGFSPKLLIYRTSNLASGVPARFSGSGSGTSYSLTIGTMEAEDVATYYCQQGSTIPLTFGAGTKLVLK"}, "B8": {"name": "MTK-32 (antibody, human IgG1, V domains shown)", "VH": "QIQLVQSGPELKKPGETVKISCKASGYTFTSYGMSWVHQAPGKGLKWLGWINTYSGVPTYADDFRGRFAFSLDTSVSTASLEINNLQNEDTATYFCAREDNWAWFAYWGQGTLVTVST", "VL": "QIVLSQSPAILSASPGEKVTMTCRATSSVGYMHWYQRKPGSSPKPWIYATSNLASGVPARFSGSGSGTSYSLTISRVEAEDAATYYCQQWSSNPRTFGGGTKLEIK"}, "B9": {"name": "MTK-36 (antibody, human IgG1, V domains shown)", "VH": "QVTLKESGPGILQPSQTLSLTCSFSGFSLSTFGMGVGWIRQPSGKGLEWLAHIWWYDDKYYEPALKSRLTISKDSSKNQVFLKIANVDTADTATYYCARIYYGTSYRYFDVWGTGTTVTVSS", "VL": "B8 VL with S14F, G30R, R37Q, S51Y, A54T, Q88H, R95Y"}, "B10": {"name": "MTK-14 (antibody, human IgG1, V domains shown)", "VH": "QIQLVQSGPELKKPGETVKISCKASGYTFTNYGMNWVKQAPGKDLQWMGWINTYTGEPTYADDFTGRFAFSLETSASTAYLQINNLKNEDTATYFCAKGGHYAWFAYWGQGTLVTVSA", "VL": "B8 VL with A25S, T26S, G30S, R37Q, A59G, S91G"}, "B11": {"name": "MTK-02 (antibody, human IgG1, V domains shown)", "VH": "QIQLVQSGPELKQPGETVKISCKASGYTFTDYGVNWVKQAPGKGLKWMGWINTYSGEPTYAGDFKGRFAFSLESSASTAFLQINNLKNEDMATYFCARRVRYWYFDVWGAGTSVTVSS", "VL": "B8 VL with K18R, T26N, G30S, R37Q, G63A, I74V, S91G, R95F, G99S"}, "B12": {"name": "MTK-08 (antibody, human IgG1, V domains shown)", "VH": "B11 VH with Q13K, D31N, V34M, S55T, G62D, S74T, F80Y, M91T, R99E, S113T", "VL": "B8 VL with G30S, Y35F, R37Q, T84A, Q89H, S92G"}}, "note": "Substitutions are numbered along the chain they refer to."}
{"molecular_target": "T1, human MerTK extracellular domain (ECD), recombinant (human, UniProt Q12866 21-505)", "T1 construct": "also called huMerTK; not shown: polyHis tag or TEVS/Thrombin/murine IgG2a Fc tag", "T1 sequence": "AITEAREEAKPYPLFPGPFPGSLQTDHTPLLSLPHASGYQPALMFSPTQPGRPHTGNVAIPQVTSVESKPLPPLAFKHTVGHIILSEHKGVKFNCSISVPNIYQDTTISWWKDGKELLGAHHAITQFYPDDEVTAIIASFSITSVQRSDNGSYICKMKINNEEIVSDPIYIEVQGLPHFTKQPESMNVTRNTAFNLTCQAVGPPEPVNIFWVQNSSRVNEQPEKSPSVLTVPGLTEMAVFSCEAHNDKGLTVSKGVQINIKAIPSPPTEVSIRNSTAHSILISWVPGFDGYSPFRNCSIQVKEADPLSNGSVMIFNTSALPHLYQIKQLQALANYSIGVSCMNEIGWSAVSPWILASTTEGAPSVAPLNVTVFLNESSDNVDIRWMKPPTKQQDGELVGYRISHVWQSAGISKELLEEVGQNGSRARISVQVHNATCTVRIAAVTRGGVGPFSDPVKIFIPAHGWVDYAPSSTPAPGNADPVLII", "assay": "SPR, Carterra LSA, antibody immobilised", "in_short": "(§1)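 Anti-MerTK antibodies diluted to 10 μg/ml in 10 mM Acetate, pH 4.25 were amine-coupled in a 96-spot array onto an HC200M chip activated with MES/sulfo-NHS/EDC, then blocked with 1M Ethanolamine pH 8.5. On a Carterra LSA, recombinant MerTK extracellular domain was injected at 33.3, 100, and 300 nM in HBS-TE with 0.5 mg/ml BSA, lowest to highest without regeneration. KD came from fitted k-on and k-off.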", "units": {"Kd": "nM"}}
{"binder": "B1", "Kd": 23}
{"binder": "B2", "Kd": 81}
{"binder": "B3", "Kd": 41}
{"binder": "B4", "Kd": 4.1}
{"binder": "B5", "Kd": 30}
{"binder": "B6", "Kd": 71}
{"binder": "B7", "Kd": 14}
{"binder": "B8", "Kd": 59}
{"binder": "B9", "Kd": 6.4}
{"binder": "B10", "Kd": 45}
{"binder": "B11", "Kd": 22}
{"binder": "B12", "Kd": 37}
{"molecular_target": "T2, murine MerTK extracellular domain (ECD), recombinant (mouse, UniProt Q60805 19-497)", "T2 construct": "also called moMerTK; mouse MerTK; not shown: polyHis tag or TEVS/Thrombin/murine IgG2a Fc tag", "T2 sequence": "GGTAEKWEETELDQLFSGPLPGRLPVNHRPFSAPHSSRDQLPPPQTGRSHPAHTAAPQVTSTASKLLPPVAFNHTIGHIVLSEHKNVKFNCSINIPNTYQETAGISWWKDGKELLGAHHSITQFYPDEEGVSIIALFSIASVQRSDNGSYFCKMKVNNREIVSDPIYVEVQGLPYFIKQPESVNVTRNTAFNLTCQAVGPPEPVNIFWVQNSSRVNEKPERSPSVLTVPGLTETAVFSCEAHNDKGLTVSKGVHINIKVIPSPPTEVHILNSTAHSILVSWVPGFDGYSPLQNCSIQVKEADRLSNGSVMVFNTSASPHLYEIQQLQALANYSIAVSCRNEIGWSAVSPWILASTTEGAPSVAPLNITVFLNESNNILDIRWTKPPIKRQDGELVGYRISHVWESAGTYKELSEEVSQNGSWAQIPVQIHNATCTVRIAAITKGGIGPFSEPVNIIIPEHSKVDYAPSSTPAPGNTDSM", "assay": "SPR, Carterra LSA, antibody immobilised", "in_short": "as §1", "units": {"Kd": "nM"}}
{"binder": "B1", "Kd": 30}
{"binder": "B2", "Kd": 165}
{"binder": "B3", "Kd": 55}
{"binder": "B4", "binding result": "no binding (tested: 300 nM)"}
{"binder": "B5", "binding result": "no binding (tested: 300 nM)"}
{"binder": "B6", "binding result": "no binding (tested: 300 nM)"}
{"binder": "B7", "binding result": "no binding (tested: 300 nM)"}
{"binder": "B8", "Kd": 186}
{"binder": "B9", "binding result": "no binding (tested: 300 nM)"}
{"binder": "B10", "binding result": "no binding (tested: 300 nM)"}
{"binder": "B11", "binding result": "no binding (tested: 300 nM)"}
{"binder": "B12", "binding result": "no binding (tested: 300 nM)"}
